In experiment [1] the target is acetylated, soluble type I collagen from rat tail, natively folded (triple-helical) (rat) (UniProt P02454).
Experiment [2] deals with gelatin derived from type I collagen from rat tail (acetylated collagen denatured at 95 °C for 10 min) (rat) (UniProt P02454).

In the case of “ColG collagenase unit from Clostridium histolyticum (from UniProt Q9X721 119-789) (enzyme)”, in experiment [1], the KM of degradation of natively folded type I collagen (Michaelis-Menten kinetics, discontinuous cleavage assay with fluorescamine detection of neo-N-termini, 25 °C) came out at 3.4 µM. The KM of gelatin degradation (Michaelis-Menten kinetics, discontinuous cleavage assay with fluorescamine detection of neo-N-termini, 25 °C) in experiment [2] is 1.35 µM.

Turning to “ColQ1 collagenase unit (Y94-G765) from Bacillus cereus strain Q1 (from UniProt B9J3S4 94-765) (enzyme)”, the KM of degradation of natively folded type I collagen (Michaelis-Menten kinetics, discontinuous cleavage assay with fluorescamine detection of neo-N-termini, 25 °C) in experiment [1] was 1.72 µM. Further, the KM of gelatin degradation (Michaelis-Menten kinetics, discontinuous cleavage assay with fluorescamine detection of neo-N-termini, 25 °C) in experiment [2] is 1.36 µM.

The record behind these values is publication PMC7893005.
